{"source": "paper PMC2888511", "key": {"Beclin 1 [1]": {"molecular_target": "Beclin 1 (UniProt Q14457)", "test": "anti-flag IP of flag-Vps34, GFP-Beclin 1 blot", "details": "reference: wild type with Cdk5/p25; sites T159"}, "Beclin 1 [2]": {"molecular_target": "Beclin 1 (UniProt Q14457)", "test": "anti-flag IP of flag-Beclin 1, HA-Vps34 blot", "details": "reference: wild type with Cdk5/p25; sites T159"}}}
{"substance": "Vps34 (from UniProt Q8NEB9) T159A with Cdk5/p25", "values": [{"measurement": "binding against the reference", "setting": "Beclin 1 [1]", "value": "stronger"}, {"measurement": "binding against the reference", "setting": "Beclin 1 [2]", "value": "stronger"}]}
